# Source: PMC5829233, “PV1, a novel Plasmodium falciparum merozoite dense granule protein, interacts with exported protein in infected erythrocytes” (Scientific Reports, 2018)
# T1: recombinant PfPV1 (P. falciparum Parasitophorous Vacuolar protein 1), His-tagged (P. falciparum 3D7, UniProt Q8II72 23-452)
# T1 chain: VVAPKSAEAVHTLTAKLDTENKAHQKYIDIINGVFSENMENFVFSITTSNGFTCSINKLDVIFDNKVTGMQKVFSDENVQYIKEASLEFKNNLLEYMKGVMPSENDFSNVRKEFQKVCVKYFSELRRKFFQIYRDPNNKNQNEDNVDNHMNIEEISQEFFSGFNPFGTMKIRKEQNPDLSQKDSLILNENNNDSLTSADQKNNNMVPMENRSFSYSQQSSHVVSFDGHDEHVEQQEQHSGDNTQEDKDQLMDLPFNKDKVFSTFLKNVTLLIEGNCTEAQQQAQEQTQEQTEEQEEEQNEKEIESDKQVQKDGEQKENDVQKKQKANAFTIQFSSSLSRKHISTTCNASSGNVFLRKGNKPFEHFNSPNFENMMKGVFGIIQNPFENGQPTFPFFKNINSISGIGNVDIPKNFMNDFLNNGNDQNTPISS
# B1: recombinant PfPV1 (P. falciparum Parasitophorous Vacuolar protein 1), His-tagged (natural protein)
# chain: T1 chain
# notes: also called His-tagged purified recombinant PfPV1; not shown: His6, C-terminal, kept
# B2: Pf3D7_0801000N, N-terminal truncate of Pf3D7_0801000 spanning 93 aa - 494 aa (domain or fragment)
# chain: GANPESISLGYELSEKDEGNKNDLINSATDVSTELENLKERLFPELELYTNDQNSRNNTPNLRKGSLGFDSFKKLELGTLNQFDKDKMINLKDETNMNEFEGFLGRNSMASNVVTSELFDEPVDDSSSTTTSTGTKLQNVPSNDNNGELLKDEPIDDYINNNSKVESEDNYYAQQNMQSQSKDNYASEQNVADQSTDNYPTQHDVPVQLRDNYASEQEYFDRGEQLNDVSADNNTSNKLKDEPVDNNTSNKLKDEPVDNNTSNKLKDEPVDDNTSNKLKDEPVDNNTINKLKDEPVDDNTSNILKDEPVDDHAGKHLKDEPVDDHAGKHMKDEPVDIDRTNIKKGLNEQHVNPWTTTLADLKNINNSMKIEKNNKSNEQVKNTSVSKSCDIIKPSKFNKKNL
# B3: PTP5_Tr0, GST-tagged recombinant PTP5 36 aa - 631 aa (domain or fragment)
# chain: TYNNYTYNGYNNDGSKQVRCKRLLSEPAVEFDTIFDVFKESFLDQMGCSDQDKDEIKNAMKIYYDNIDMNALSNEIQTNDNFFNEFGNDVNSINKIMKTDITNEQGTSADNNTTENNVSTSQVDEQPEASTSGVERMKERSNLFANNLTEEKNDTGDIKKEENKSKPSQLDGNNHSETSSHQGEKNNENETEKKTDQNETGTKKPSKYTMNLDSPLLKGSSEGETSSKKAQEKSVEPTKKPSKYTMNLDSPLLKGSSGSETSSTKESNDSNGATKKPSKYTMNLDSPLLKGSSGGKTSSNKESNESNEPTKKPSKYTMNLDSPLLKGSSGGETSSNKESNENNEPTKKPSKYTMNLDSPLLKGSSEGETSSNKESNESNEPTKKPSKYTMNLDSPLLKGSSGGETSSNKESNENNEPTKKPSKYTMNLDSPLLKGSSEGETSSNKESNESNEPTKKPSKYTMNLDSPLLKGSSEGETSSNEKQEESNVATKKPSKYTLNLDSPLLKSETKSDVKRGSNKSFSLENIGKLDIGSLLAQNLELLKGFALNFQTLSLFFLVFVGQFYPKHFQKAAIFIGMVNVFLECKRLYGRSQKKLK
# notes: not shown: GST, N-terminal, kept
# What was measured:
# [1] = biological target: recombinant PfPV1 (P. falciparum Parasitophorous Vacuolar protein 1), His-tagged (P. falciparum 3D7) (UniProt Q8II72); test: SPR; Biacore X100, CM5 chip, […]; HBS-EP+ (10 mM HEPES pH 7.4, 150 mM NaCl, 3 mM EDTA, 0.05% P20); single-cycle kinetics, global fit
# [2] = biological target: recombinant PfPV1 (P. falciparum Parasitophorous Vacuolar protein 1), His-tagged (P. falciparum 3D7) (UniProt Q8II72); test: SPR; Biacore X100, CM5 chip, […]; HBS-EP+ (10 mM HEPES pH 7.4, 150 mM NaCl, 3 mM EDTA, 0.05% P20); multi-cycle kinetics, global fit
# [3] = biological target: B3; test: SPR; Biacore X100, CM5 chip, […]; HBS-EP+ (10 mM HEPES pH 7.4, 150 mM NaCl, 3 mM EDTA, 0.05% P20); single-cycle kinetics, global fit; conditions: both partners purified
# [4] = biological target: T1, recombinant PfPV1 (P. falciparum …); test: SPR
# [5] = biological target: B1; test: SPR; Biacore X100, CM5 chip, […]; HBS-EP+ (10 mM HEPES pH 7.4, 150 mM NaCl, 3 mM EDTA, 0.05% P20); single-cycle kinetics, global fit; conditions: both partners purified
molecule,measurement,setting,value
"PTP5_Tr2, GST-tagged recombinant PTP5 537 aa - 631 aa (domain or fragment)",Kd,[1],1.24 nM
"PTP5_Tr1, GST-tagged recombinant PTP5 36 aa - 334 aa (domain or fragment)",Kd,[2],938 nM
B1,Kd,[3],2.71 nM
B2,Kd,[4],45.4 nM
B3,stoichiometry N,[5],1
